Target: NKG2D ligands (NKG2DL) on target cells
Assay: cell-based or functional assay

target cell apoptosis (U-2 OS), apoptotic cells/0.07 mm^2 (apoptotic cells/0.07 mm^2): 11.7
Substance: NKG2D-DAP10-CD3zeta chimeric receptor complex (from UniProt Q9UBK5 19-93)
